# According to patent US8114974B2, “Engineered microorganisms with enhanced fermentation activity” (Verdezyne, Inc., priority 2009, dated 2012):
# B1: Escherichia coli: xylose isomerase of this donor organism (protein, UniProt P00944 1-440, looked up)
# Xylose isomerase: MQAYFDQLDRVRYEGSKSSNPLAFRHYNPDELVLGKRMEEHLRFAACYWHTFCWNGADMFGVGAFNRPWQQPGEALALAKRKADVAFEFFHKLHVPFYCFHDVDVSPEGASLKEYINNFAQMVDVLAGKQEESGVKLLWGTANCFTNPRYGAGAATNPDPEVFSWAATQVVTAMEATHKLGGENYVLWGGREGYETLLNTDLRQEREQLGRFMQMVVEHKHKIGFQGTLLIEPKPQEPTKHQYDYDAATVYGFLKQFGLEKEIKLNIEANHATLAGHSFHHEIATAIALGLFGSVDANRGDAQLGWDTDQFPNSVEENALVMYEILKAGGFTTGGLNFDAKVRRQSTDKYDLFYGHIGAMDTMALALKIAARMIEDGELDKRIAQRYSGWNSELGQQILKGQMSLADLAKYAQEHHLSPVHQSGRQEQLENLVNHYLFDK
# B2: Bacillus subtilis: xylose isomerase of this donor organism (protein, UniProt P0CI80 1-445, looked up)
# Xylose isomerase: MAQSHSSSINYFGSANKVVYEGKDSTNPLAFKYYNPQEVIGGKTLKEHLRFSIAYWHTFTADGTDVFGAATMQRPWDHYKGMDLAKMRVEAAFEMFEKLDAPFFAFHDRDIAPEGSTLKETNQNLDMIMGMIKDYMRNSGVKLLWNTANMFTNPRFVHGAATSCNADVFAYAAAQVKKGLETAKELGAENYVFWGGREGYETLLNTDLKFELDNLARFMHMAVDYAKEIGYTGQFLIEPKPKEPTTHQYDTDAATTIAFLKQYGLDNHFKLNLEANHATLAGHTFEHELRMARVHGLLGSVDANQGHPLLGWDTDEFPTDLYSTTLAMYEILQNGGLGSGGLNFDAKVRRSSFEPDDLIYAHIAGMDAFARGLKVAHKLIEDRVFEDVIQHRYRSFTEGIGLEIIEGRANFHTLEQYALNHKSIKNESGRQEKLKAILNQYILEV
# B3: XI-Rp5: chimera: first 5 amino acids of Piromyces xylose isomerase fused to Ruminococcus xylose isomerase (SEQ ID NO. 56) (protein)
# chain: MAKEYFSNIGKIQYQGPKSTDPLSFKYYNPEEVINGKTMREHLKFALSWWHTMGGDGTDMFGCGTTDKTWGQSDPAARAKAKVDAAFEIMDKLSIDYYCFHDRDLSPEYGSLKATNDQLDIVTDYIKEKQGDKFKCLWGTAKCFDHPRFMHGAGTSPSADVFAFSAAQIKKALESTVKLGGNGYVFWGGREGYETLLNTNMGLELDNMARLMKMAVEYGRSIGFKGDFYIEPKPKEPTKHQYDFDTATVLGFLRKYGLDKDFKMNIEANHATLAQHTFQHELRVARDNGVFGSIDANQGDVLLGWDTDQFPTNIYDTTMCMYEVIKAGGFTNGGLNFDAKARRGSFTPEDIFYSYIAGMDAFALGFRAALKLIEDGRIDKFVADRYASWNTGIGADIIAGKADFASLEKYALEKGEVTASLSSGRQEMLESIVNNVLFSL
# B4: R. flavefaciens, FD-1 XI: xylose isomerase of Ruminococcus flavefaciens FD1 (ZP_06143883.1, SEQ ID NO: 110) (protein, listed as Ruminococcus flavefaciens)
# chain: MEFFKNISKIPYEGKDSTNPLAFKYYNPDEVIDGKKMRDIMKFALSWWHTMGGDGTDMFGCGTADKTWGENDPAARAKAKVDAAFEIMQKLSIDYFCFHDRDLSPEYGSLKDTNAQLDIVTDYIKAKQAETGLKCLWGTAKCFDHPRFMHGAGTSPSADVFAFSAAQIKKALESTVKLGGTGYVFWGGREGYETLLNTNMGLELDNMARLMKMAVEYGRSIGFKGDFYIEPKPKEPTKHQYDFDTATVLGFLRKYGLDKDFKMNIEANHATLAQHTFQHELCVARTNGAFGSIDANQGDPLLGWDTDQFPTNIYDTTMCMYEVIKAGGFTNGGLNFDAKARRGSFTPEDIFYSYIAGMDAFALGYKAASKLIADGRIDSFISDRYASWSEGIGLDIISGKADMAALEKYALEKGEVTDSISSGRQELLESIVNNVIFNL
# B5: Codon-optimized EDA from P. aeruginosa: codon-optimized version of the P. aeruginosa EDA gene (protein, UniProt O68283 1-220, looked up)
# 2-dehydro-3-deoxy-phosphogluco …: MHNLEQKTARIDTLCREARILPVITIDREADILPMADALAAGGLTALEITLRTAHGLTAIRRLSEERPHLRIGAGTVLDPRTFAAAEKAGASFVVTPGCTDELLRFALDSEVPLLPGVASASEIMLAYRHGYRRFKLFPAEVSGGPAALKAFSGPFPDIRFCPTGGVSLNNLADYLAVPNVMCVGGTWMLPKAVVDRGDWAQVERLSREALERFAEHRRH
# modifications: codon-optimized gene
# B6: E. coli EDA: 2-keto-3-deoxygluconate-6-phosphate aldolase of Escherichia coli expressed in yeast (protein, UniProt P0A955 1-213, looked up)
# KHG/KDPG aldolase: MKNWKTSAESILTTGPVVPVIVVKKLEHAVPMAKALVAGGVRVLEVTLRTECAVDAIRAIAKEVPEAIVGAGTVLNPQQLAEVTEAGAQFAISPGLTEPLLKAATEGTIPLIPGISTVSELMLGMDYGLKEFKFFPAEANGGVKALQAIAGPFSQVRFCPTGGISPANYRDYLALKSVLCIGGSWLVPADALEAGDYDRITKLAREAVEGAKL
# B7: Clostridium phytofermentans: xylose isomerase of this donor organism (protein)
# chain: MKNYFPNVPEVKYEGPNSTNPFAFKYYDANKVVAGKTMKEHCRFALSWWHTLCAGGADPFGVTTMDRTYGNITDPMELAKAKVDAGFELMTKLGIEFFCFHDADIAPEGDTFEESKKNLFEIVDYIKEKMDQTGIKLLWGTANNFSHPRFMH
# modifications: Clostridium phytofermentans
# notes: xylose isomerase of this donor organism
# Tests used:
# [1] = test system: xylose isomerase; experiment: Heterologous xylose isomerase expression in yeast (active yes/no); format: cell-based, Saccharomyces cerevisiae; details: xylose isomerase of the donor organism expressed in engineered yeast (S. cerevisiae)
# [2] = test system: xylose isomerase; experiment: In vitro xylose isomerase activity assay (sorbitol dehydrogenase/NADH coupled, A340; Km, specific activity, Ki for xylitol); format: biochemical, Saccharomyces cerevisiae
# Protocol: About 20 μg of soluble whole cell extract was incubated in the presence of 100 mM Tris, pH 7.5, 10 mM MgCl2, 0.15 mM NADH (Sigma, St. Louis, Mo.), and about 2 U sorbitol dehydrogenase (Roche) at about 30° C. […] A Beckman DU-800 was utilized with an Enzyme Mechanism software package (Beckman Coulter, Inc.), and the change in the A340 was monitored for 2-3 minutes.
# Approximately 20 μg of soluble whole cell extract from each transformed cell line, prepared using Y-PER plus reagent as described above, was incubated in a solution containing about 100 mM Tris, pH 7.5, 10 mM MgCl ? 2, 0.15 mM NADH (Sigma, St. Louis, Mo.), and 2 U Sorbitol Dehydrogenase (SDH) (Roche, Indianapolis, Ind.) at about 30° C. […] A Beckman DU-800 spectrophotometer was utilized with an Enzyme Mechanism software package (Beckman Coulter, Inc, Brea, Calif.), and the change in the A340 was monitored for 2-3 minutes.
# Approximately 20 μg of soluble whole cell extract from each transformed cell line was prepared using Y-PER plus reagent as described above was incubated in a solution containing about 100 mM Tris, pH 7.5, 10 mM MgCl2, 0.15 mM NADH (Sigma, St. Louis, Mo.), and 2 U sorbitol dehydrogenase (SDH) (Roche, Indianapolis, Ind.) at about 30° C. […] A Beckman DU-800 spectrophotometer was utilized with an Enzyme Mechanism software package (Beckman Coulter, Inc, Brea, Calif.), and the change in the A340 was monitored for 2-3 minutes.
# Approximately 20 μg of soluble whole cell extract from each transformed cell line was prepared using Y-PER plus reagent as described above was incubated in a solution containing about 100 mM Tris, pH 7.5, 10 mM MgCl ? .2, 0.15 mM NADH (Sigma, St. Louis, Mo.), and 2 U Sorbitol Dehydrogenase (SDH) (Roche, Indianapolis, Ind.) at about 30° C. […] A Beckman DU-800 spectrophotometer was utilized with an Enzyme Mechanism software package (Beckman Coulter, Inc, Brea, Calif.), and the change in the A340 was monitored for 2-3 minutes.
# The Clostridiales enzyme was further characterized at 1974 μg to confirm the presence of activity.
# [3] = test system: 2-keto-3-deoxygluconate-6-phosphate aldolase (EDA); experiment: EDA activity assay with saturating amounts of E. coli EDD extract (LDH/NADH coupled); format: biochemical, Saccharomyces cerevisiae; details: for EDA activity (comparison in words): saturating E. coli EDD extract
# Protocol: EDA genes isolated from a variety of sources were expressed in yeast and evaluated independently of EDA activity, to identify EDA activities suitable of inclusion in an engineered yeast strain. […] The activity of integrated EDAs in Thermosacc-Gold haploids, were also evaluated in this manner. The table below describes oligonucleotide primers used to isolate the various EDA genes.
# EDA extracts were prepared using the following protocol. Day 1
# Grow 5 ml LB-Kan preps of BF1055 (BL21/DE3 with pET26b empty vector) and BF1706 (BL21DE3 with pET26b+E. coli EDD).
# Grow 50 ml LB-Kan prep of BF1055, 2% (v/v) inoculate.
# Grow 50 ml prep of BF1706 using Novagen's Overnight Express (46.45 ml LB-Kan, 1 ml solution 1, 2.5 ml solution 2, 50 μl solution 3, 5 μl of 1M MnCl2, 50 μl of 0.5 M FeCl2), 2% (v/v) inoculate.
# Inoculate to OD600 of 0.2.
# EDD extractions (adapted from Chemyan et al, Protein Science 16:2368-2377, 2007): • 1) Pellet cells in 50 ml conical tubes, 4° C., 3,000 rpm, 10 mins, discard supernatant. • 2) Resuspend in 2 ml degassed PDGH buffer (20 mM MES pH 6.5, 30 mM NaCl, 5 mM • MnCl2, 0.5 mM FeCl2, 10 mM 2-mercaptoethanol, 10 mM cysteine, sparged with nitrogen gas). Move to hungate tube. • 3) Add 0.1% Triton X-100, 10 ng/ml DNase, 10 μg/ml PMSF, 10 μg/ml TAME (Nα-(p-toluene sulfonyl)-L-arginine methyl ester), 100 μg/ml lysozyme. • 4) Sparge hungate tube with nitrogen gas, cap and seal. Incubate 2 hours at 37° C., swirl occasionally. • 5) Clarify by centrifugation in 2-ml tube, 4° C., 10 mins, 14,000 rpm. Keep supernatant. • 6) Treat with 150 mM pyruvate and 10 mM sodium cyanoborohydride (work in hood) to inactivate aldolase activity. Incubate 30 mins at room temperature. • 7) During incubation, pre-equilibrate PD-10 column from GE • a. Remove top cap, pour off storage buffer. • b. Cut off bottom tip, fit in 50 ml conical with adapter. • c. Pour 5 ml of 20 mM MES buffer, pH 6.5 (total of 5 times). Discard flow-through. • 8) Run sample through column, then add MES buffer to a total of 2.5 ml volume added. Discard flow-through. • 9) Run 3.5 ml 20 mM MES pH 6.5 buffer to elute protein. Discard column in appropriate waste receptacle. • 10) Perform Bradford assay (1:10 or 1:20 dilution). EDA extractions: • 1) Spin down in 50 ml conicals, 4° C., 3,400 rpm, 5 mins. Wash 2× with 25 ml water. • 2) Resuspend in 1 ml lysis buffer (50 mM Tris-HCl, pH 7, 10 mM MgCl2, 1× protease inhibitor. […]
# Each reaction contains 50 mM Tris-HCl, pH 7, 10 mM MgCl2, 0.15 mM NADH, 15 μg LDH, saturating amounts of EDD determined empirically (usually ˜100 μg), 1-50 μg EDA (depending on level of activity), and 1 mM 6-phosphogluconate. Reactions are started by the addition of 6-phosphogluconate and monitored for 5 mins at 30° C.
# [4] = chimeric variants, soluble whole cell extract, xylose 40-500 mM
molecule,measurement,setting,value
Actinoplanes missouriensis: xylose isomerase of this donor organism,Active? (yes/no),[1],No
Streptomyces rubiginosus: xylose isomerase of this donor organism,Active? (yes/no),[1],No
Piromyces: xylose isomerase from Piromyces strain E2 (SEQ ID NO: 35),Specific Activity,"[2]; G179A mutant kinetic assays, xylose 40-500 mM",2.02 µmol/min/mg
same,Specific Activity,[2]; [4],2.02 µmol/min/mg
same,Specific Activity,"[2]; soluble whole cell extract, xylose 40-500 mM, 30° C., pH 7.5",2.02 µmol/min/mg
same,Active? (yes/no),[1],Yes
Bacteroides thetaiotaomicron: xylose isomerase of this donor organism,Active? (yes/no),[1],Yes
Thermus thermophilus: xylose isomerase of this donor organism,Active? (yes/no),[1],Yes
B1,Active? (yes/no),[1],No
B2,Active? (yes/no),[1],No
B3,Km,[2]; [4],66.5 mM
same,Specific Activity,[2]; [4],1.45 µmol/min/mg
B4,xylose isomerase activity (slope) of candidate enzymes (FIG. 25),"[2]; 100 μg total soluble crude extract, saturating xylose (500 mM)",highest activity of the candidates tested
same,specific activity relative to the native XI control activity,"[2]; Michaelis Mentin plots, xylose between 40 and 500 nM as printed",greater than 2 fold
B5,EDA activity (comparison in words),[3]; first experiment,slight improvement over the native sequence
B6,"EDA activity, repeated experiment (FIG. 24)","[3]; 100 μg of EDD and 25 μg of EDA cell lysates (5 μg of E. coli EDA), linear range",most active of those EDA's tested
same,EDA activity (comparison in words),[3]; first experiment,higher activity as compared to the other EDA activities evaluated herein
same,EDA activity relative to the EDA from P. aeruginosa,"[3]; first experiment, E. coli EDA slope outside linear range, underestimated",approximately 16 fold
B7,Active? (yes/no),[1],Yes
